Reference: the supplement of paper PMC10567573

B1: EPB41L3 (parent)
chain: GSKFRYSGRTQAQTRRASALIDRP

Variants of: B1
Assay: protein stability index of a GFP-peptide fusion (GPS, HEK-293T) (PSI 1-6); higher = more stable
Conditions: c terminus: a fixed tail appended
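Further: lentivirally expressed fusions sorted by FACS into six bins by GFP to DsRed ratio, PSI derived from sequencing read proportions per bin multiplied by bin number.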

In order of falling protein stability index:
1. P24D  3.56
2. P24R  3.54
3. D22Q  3.54
4. P24H  3.47
5. D22R  3.45
6. P24K  3.44
7. R23D  3.44
8. P24G  3.32
9. R23E  3.32
10. P24E  3.19
11. R23H  3.16
12. R23Q  3.12
13. D22S  3.11
14. D22P  3.09
15. P24C  3.06
16. P24V  3.05
17. P24T  3.05
18. P24F  3.05
19. R23P  3.02
20. D22T  3.02
21. R23G  3.01
22. R23S  3.01
23. P24M  3
24. D22L  2.99
25. R23K  2.94
26. R23C  2.89
27. D22N  2.82
28. R23A  2.81
29. P24N  2.8
30. P24S  2.8
31. P24Q  2.79
32. P24Y  2.78
33. R23W  2.77
34. D22W  2.72
35. P24I  2.71
36. R23L  2.71
37. D22K  2.7
38. R23F  2.69
39. D22M  2.69
40. R23N  2.67
41. R23V  2.67
42. D22V  2.66
43. R23T  2.58
44. P24A  2.57
45. P24L  2.56
46. R23Y  2.5
47. R23M  2.41
48. P24W  2.32
49. D22Y  2.29
50. R23I  2.11
